Reference: patent US20250326864A1 (PARADOX IMMUNOTHERAPEUTICS, published 2025)

What was measured:
[1] = target: T1, islet amyloid polypeptide (IAPP) amyloid in pancreatic tissue (human, UniProt P10997 34-70); experiment: immunohistochemistry on patient tissue
T1 construct: Pathological control tissue in immunohistochemistry; also called IAPP amyloid pancreatic tissue
T1 chain (looked up): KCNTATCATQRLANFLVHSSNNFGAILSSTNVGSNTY

[2] = target: transthyretin (ATTR) amyloid in cardiac tissue (human, UniProt P02766 21-147); experiment: immunohistochemistry on patient tissue
[3] = target: T2, misfolded/unfolded Wil λ light chain (human); experiment: microscale thermophoresis, labeled antibody
T2 construct: mature; Soluble misfolded form made from native Wil; Biotinylated in the capture ELISA; also called misfolded Wil; Wil (misfolded)
Protocol: (§1) FIGS. 7A and 7B are line graphs illustrating the results of binding of misfolded (FIG. 7A) or amyloid (FIG. 7B) Wil to muLX-97 measured by MST (microscale thermophoresis).
(§2) Next, the binding affinity of muLX-97 to amyloid forms of λ light chains was determined. A true affinity to aggregates could not be measured using previously described methods where either the antibody or target is immobilized, so microscale thermophoresis (MST) was used. In this method a small spot in a capillary containing fluorescently labeled antibody in the presence or absence of target is irradiated with an infrared laser. The local heating causes migration of protein out of the heated spot and the rate of migration change (due to the antibody binding to a ligand) can be used to measure the affinity. Using the NanoTemper Monolith, binding of muLX-97 to misfolded and amyloid forms of Wil was quantified, with results shown in FIG. 7.

[4] = target: aggregated/amyloid Wil λ light chain (human); experiment: cell-based or functional assay
[5] = target: T3, aggregated/amyloid Wil λ light chain (human); experiment: microscale thermophoresis, labeled antibody
T3 construct: mature; Aggregate of many chains; Conjugated to pHrodo in the phagocytosis assay; also called Wil amyloid; amyloid/aggregated Wil
Protocol: as §1, §2

[6] = target: T2, misfolded/unfolded Wil λ light chain; experiment: microscale thermophoresis, labeled antibody; remark: listed apart in the source
Protocol: as §1, §2

[7] = target: T4, misfolded H3 λ light chain (human); experiment: bio-layer interferometry
T4 construct: also called H3 (misfolded)
Protocol: (§3) FIGS. 6A-6F are bio-layer interferometry sensorgrams of binding interactions between clone 1 (muLX-97) to misfolded (FIGS. 6A, 6B, 6C) and native (FIGS. 6D, 6E, 6F) conformations of Wil (FIGS. 6A, 6D), H3 (FIGS. 6B, 6E), and FOR102 (FIGS. 6C, 6F) lambda light chain variants. Binding of muLX-97 with its misfolded Wil at a range of target concentrations was measured by changes in wavelength (nm) over 720 seconds (120 s association, 600 s dissociation). Association and dissociation curves were fit using Octet Systems Software to determine KD.
(§4) The binding affinity of muLX-97 to multiple λ light chain variants in misfolded and native conformations was then measured. In addition to Wil, two light chain variants sequenced from cardiac amyloid deposits in light chain amyloidosis patients were selected. See Oberti L et al. Concurrent structural and biophysical traits link with immunoglobulin light chains amyloid propensity. Sci Rep. 2017 Dec. 1; 7(1):16809 and Baur J et al. Identification of AL proteins from 10λ-AL amyloidosis patients by mass spectrometry extracted from abdominal fat and heart tissue. Amyloid. 2023 March; 30(1) 27-37. […] In native conformations of all variants, only weak binding (limited BLI signal, at very high concentration of 1000 nM) was observed. This limited association may be due to the presence of small amounts of misfolded Wil contaminating the ‘native’ sample.

[8] = target: T2, misfolded/unfolded Wil λ light chain; experiment: bio-layer interferometry
Protocol: as §3, §4

[9] = target: T5, misfolded FOR102 λ light chain (human); experiment: bio-layer interferometry
T5 construct: also called FOR102 (misfolded)
Protocol: as §3, §4

[10] = target: T2, misfolded/unfolded Wil λ light chain; experiment: capture ELISA, antibody captured by anti-mouse Fc, biotinylated Wil in solution
Description: All the candidate mAbs detected both misfolded/unfolded and amyloid/aggregated Wil. […] It was suspected that the Western blotting and indirect ELISA methods, which immobilizes the ‘native’ Wil protein to a surface, can lead to false-positive binding to the native protein by inducing some degree of misfolding, which would not be detected by the clones that bound weakly (clones 3-5). As such, a capture format ELISA was used to interrogate the binding behavior of clones 1 and 2. In this format, a goat anti-mouse Fc capture antibody was coated into the ELISA wells, and clones 1 or 2 are captured by the antibody with their Fabs aligned to the appropriate orientation. Then, native, or misfolded forms of biotinylated Wil is added to these wells and binding is measured by streptavidin. […] Based on the above data, clone 1 was selected as the lead candidate for subsequent characterization (henceforth referred to as muLX-97).

- binding result [1]: no binding
- binding result [2]: no binding
- Kd [3]: 61.9 nM
- EC50 of phagocytic uptake of pHrodo-labeled amyloid Wil (% pHrodo-positive cells), J774.1 cells [4]: ~7 nM
- EC50 of phagocytic uptake of pHrodo-labeled amyloid Wil (% pHrodo-positive cells), RAW 264.7 cells [4]: ~20 nM
- Kd [5]: 87 nM
- Kd [6]: 61 nM
- Kd [7]: 317 nM
- Kd [8]: 59 nM
- Kd [9]: 65 nM
- Kd [10]: 69 nM
B1: muLX-97 (clone 1) (antibody, V domains shown)
VH: DVKLVESGGGLVKLGGSLKLSCAASGFTFSSYYMSWVRQTPEKRLELVAAINSNGGNTYYPDTVKGRFTISRDNAKNTLYLQMSSLKSEDTALYYCARLPFDYWGQGTTLTVSS
VL: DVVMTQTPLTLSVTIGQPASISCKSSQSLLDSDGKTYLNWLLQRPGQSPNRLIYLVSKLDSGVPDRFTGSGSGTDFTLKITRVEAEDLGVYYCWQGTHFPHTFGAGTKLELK
modifications: Antibody fluorescently labeled in the MST assay; dye and site not stated.
notes: Murine monoclonal antibody from a hybridoma, purified from mouse ascites fluid; Fluorescently labeled in the MST assay
